The target in this test is TsCC(A)-(RGG)3-GFP scaffold (Caenorhabditis elegans). Description: integrated fluorescence intensity in condensates over whole cell, U2OS cells.

Regarding “Rac1-mCherry-TsCC(B) (from UniProt P63000 1-189)”, the fraction of client localized to the synthetic organelle was 50%.
